Where “and” joins values, the source holds several entries; their conditions need not be identical. Equal entries are not always repeated.

Experiment [1] has as its target GEO1900, branched-chain amino acid transaminase (BCAT) from Geoglobus acetivorans (Geoglobus acetivorans). Briefly: crystal structure; GEO1900 holo form and AKG complex, space group P3(2)21, three subunits per asymmetric unit; hexamer built with symmetry mates.
Experiment [2] has the same target. Briefly: SEC; GEO1900 on Superdex 200 in 30 mM Tris-HCl, pH 8.0, 300 mM NaCl; native molecular weight by gel filtration. For orientation: SEC sorts molecules by how far they enter the pores of the column.

In general, stoichiometry N refers to a count of units in the complex or per binding partner. “GEO1900, branched-chain amino acid transaminase (BCAT) from Geoglobus acetivorans (enzyme)”: the stoichiometry N in experiment [1] is 6; in experiment [2] it was 2 and 4.
